# PMC5201024
# Biological target: MST3/4 (endogenous MST3 and MST4, m10/m11)
# Experiment: co-immunoprecipitation (anti-Myc IP, immunoblot quantification)
# Details: HeLa cells co-transfected with Myc-RHOA-Q63L and GFP-FAM65A full-length; n=3 independent experiments; read off a plot
substance,measurement,value
RHOA wild type (P61586) Q63L,response (IP/Input ratio (arbitrary units)),4.6
